{"source": "IntAct's records for PubMed 31515488", "parents": {"B1": {"name": "Protein FAM9B (Homo sapiens), Q8IZU0 (parent)", "chain": "MAAWGKKHAGKDPVRDECEERNRFTETREEDVTDEHGEREPFAETDEHTGANTKKPEDTAEDLTAKRKRMKMDKTCSKTKNKSKHALRKKQLKRQKRDYIHSLKLLNVLEEYITDEQKEEEEEEGEEEELIRIFQEQQKKWQQYRSVRRERLKEMKLLRDQFVKALEDFEDLCDRVFSDEDSELDN", "partner": "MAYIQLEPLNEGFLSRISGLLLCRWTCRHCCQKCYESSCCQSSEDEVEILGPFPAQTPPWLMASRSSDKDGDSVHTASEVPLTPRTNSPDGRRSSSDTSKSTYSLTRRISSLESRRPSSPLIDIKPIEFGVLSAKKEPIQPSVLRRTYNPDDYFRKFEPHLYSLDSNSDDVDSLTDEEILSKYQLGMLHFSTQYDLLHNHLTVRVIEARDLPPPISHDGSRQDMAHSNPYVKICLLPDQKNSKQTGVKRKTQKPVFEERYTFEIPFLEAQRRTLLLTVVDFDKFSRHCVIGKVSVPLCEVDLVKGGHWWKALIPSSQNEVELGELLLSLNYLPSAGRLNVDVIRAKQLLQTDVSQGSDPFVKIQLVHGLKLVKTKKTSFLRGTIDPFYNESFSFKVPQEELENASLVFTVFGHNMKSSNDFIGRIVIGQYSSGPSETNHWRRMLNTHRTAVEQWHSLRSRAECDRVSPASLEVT"}, "B2": {"name": "ATP synthase mitochondrial F1 complex assembly factor 2 (Homo sapiens), Q8N5M1 (parent)", "chain": "MWRSCLRLRDGGRRLLNRPAGGPSASMSPGPTIPSPARAYAPPTERKRFYQNVSITQGEGGFEINLDHRKLKTPQAKLFTVPSEALAIAVATEWDSQQDTIKYYTMHLTTLCNTSLDNPTQRNKDQLIRAAVKFLDTDTICYRVEEPETLVELQRNEWDPIIEWAEKRYGVEISSSTSIMGPSIPAKTREVLVSHLASYNTWALQGIEFVAAQLKSMVLTLGLIDLRLTVEQAVLLSRLEEEYQIQKWGNIEWAHDYELQELRARTAAGTLFIHLCSESTTVKHKLLKE"}, "B3": {"name": "Notch homolog 2 N-terminal-like protein A (Homo sapiens), Q7Z3S9 (parent)", "chain": "MCVTYHNGTGYCKCPEGFLGEYCQHRDPCEKNRCQNGGTCVAQAMLGKATCRCASGFTGEDCQYSTSHPCFVSRPCLNGGTCHMLSRDTYECTCQVGFTGKECQWTDACLSHPCANGSTCTTVANQFSCKCLTGFTGQKCETDVNECDIPGHCQHGGTCLNLPGSYQCQCLQGFTGQYCDSLYVPCAPSPCVNGGTCRQTGDFTFECNCLPETVRRGTELWERDREVWNGKEHDEN", "partner": "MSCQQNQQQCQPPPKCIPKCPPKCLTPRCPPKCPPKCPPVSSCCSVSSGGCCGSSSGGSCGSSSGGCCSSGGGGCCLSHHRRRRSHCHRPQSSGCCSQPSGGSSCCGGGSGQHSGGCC"}, "B4": {"name": "Centriolar satellite-associated tubulin polyglutamylase complex regulator 1 (Homo sapiens), Q9H6J7 (parent)", "chain": "MLSPERLALPDYEYLAQRHVLTYMEDAVCQLLENREDISQYGIARFFTEYFNSVCQGTHILFREFSFVQATPHNRVSFLRAFWRCFRTVGKNGDLLTMKEYHCLLQLLCPDFPLELTQKAARIVLMDDAMDCLMSFSDFLFAFQIQFYYSEFLDSVAAIYEDLLSGKNPNTVIVPTSSSGQHRQRPALGGAGTLEGVEASLFYQCLENLCDRHKYSCPPPALVKEALSNVQRLTFYGFLMALSKHRGINQALGALPDKGDLMHDPAMDEELERLLAQVPGLVNSVTASPEASCLPSRTPPRVGSPWRPLHHSRKVDGESDGSTEETDESET", "partner": "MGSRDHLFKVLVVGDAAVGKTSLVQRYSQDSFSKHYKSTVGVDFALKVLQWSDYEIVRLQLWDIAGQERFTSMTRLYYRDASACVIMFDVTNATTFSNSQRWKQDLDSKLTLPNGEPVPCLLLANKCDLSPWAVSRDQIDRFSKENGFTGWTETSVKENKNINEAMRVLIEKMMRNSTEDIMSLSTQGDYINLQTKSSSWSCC"}, "B5": {"name": "AKT-interacting protein (Homo sapiens), Q9H8T0 (parent)", "chain": "MNPFWSMSTSSVRKRSEGEEKTLTGDVKTSPPRTAPKKQLPSIPKNALPITKPTSPAPAAQSTNGTHASYGPFYLEYSLLAEFTLVVKQKLPGVYVQPSYRSALMWFGVIFIRHGLYQDGVFKFTVYIPDNYPDGDCPRLVFDIPVFHPLVDPTSGELDVKRAFAKWRRNHNHIWQVLMYARRVFYKIDTASPLNPEAAVLYEKDIQLFKSKVVDSVKVCTARLFDQPKIEDPYAISFSPWNPSVHDEAREKMLTQKKPEEQHNKSVHVAGLSWVKPGSVQPFSKEEKTVAT", "partner": "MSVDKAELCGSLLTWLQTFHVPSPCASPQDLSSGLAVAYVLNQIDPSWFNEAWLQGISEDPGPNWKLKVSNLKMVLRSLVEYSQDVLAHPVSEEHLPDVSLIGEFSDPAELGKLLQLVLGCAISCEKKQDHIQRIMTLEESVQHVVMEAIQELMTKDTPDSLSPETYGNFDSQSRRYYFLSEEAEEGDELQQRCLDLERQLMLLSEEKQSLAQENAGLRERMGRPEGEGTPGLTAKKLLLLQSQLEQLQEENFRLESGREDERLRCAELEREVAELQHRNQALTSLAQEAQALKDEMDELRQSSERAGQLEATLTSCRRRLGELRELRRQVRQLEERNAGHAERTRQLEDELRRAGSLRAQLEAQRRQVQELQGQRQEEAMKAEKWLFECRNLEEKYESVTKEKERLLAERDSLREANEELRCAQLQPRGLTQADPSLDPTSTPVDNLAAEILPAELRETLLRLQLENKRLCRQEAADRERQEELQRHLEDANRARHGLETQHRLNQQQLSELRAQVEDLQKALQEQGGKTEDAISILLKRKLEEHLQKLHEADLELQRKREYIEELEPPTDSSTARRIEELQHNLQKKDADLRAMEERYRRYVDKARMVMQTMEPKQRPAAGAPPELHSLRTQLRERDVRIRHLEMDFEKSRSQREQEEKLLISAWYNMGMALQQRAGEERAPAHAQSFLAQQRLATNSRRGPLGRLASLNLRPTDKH"}, "B6": {"name": "Microtubule-associated tumor suppressor candidate 2 (Homo sapiens), Q5JR59-3 (parent)", "chain": "MGHCCCKPYNCLQCLDKTNESALVKEKELSIELANIRDEVAFHTAKCEKLQKEKEELERRFEDEVKRLGWQQQAELQELEERLQLQFEAEMARLQEEHGDQLLSIRCQHQEQVEDLTASHDAALLEMENNHTVAITILQDDHDHKVQELMSTHELEKKELEENFEKLRLSLQDQVDTLTFQSQSLRDRARRFEEALRKNTEEQLEIALAPYQHLEEDMKSLKQVLEMKNQQIHEQEKKILELEKLAEKNIILEEKIQVLQQQNEDLKARIDQNTVVTRQLSEENANLQEYVEKETQEKKRLSRTNEELLWKLQTGDPTSPIKLSPTSPVYRGSSSGPSSPARVSTTPR", "partner": "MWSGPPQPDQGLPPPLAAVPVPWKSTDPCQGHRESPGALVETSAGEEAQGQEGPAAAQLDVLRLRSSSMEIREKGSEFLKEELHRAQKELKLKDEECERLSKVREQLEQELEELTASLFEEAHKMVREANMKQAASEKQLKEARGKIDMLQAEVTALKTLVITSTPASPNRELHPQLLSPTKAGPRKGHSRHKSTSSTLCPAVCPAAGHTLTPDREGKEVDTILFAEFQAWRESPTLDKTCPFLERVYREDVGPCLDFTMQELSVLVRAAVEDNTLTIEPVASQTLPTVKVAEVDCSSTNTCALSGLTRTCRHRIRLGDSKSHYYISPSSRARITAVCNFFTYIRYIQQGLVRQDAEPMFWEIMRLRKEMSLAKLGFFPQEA"}, "B7": {"name": "Serpin I2 (Homo sapiens), O75830 (parent)", "chain": "MDTIFLWSLLLLFFGSQASRCSAQKNTEFAVDLYQEVSLSHKDNIIFSPLGITLVLEMVQLGAKGKAQQQIRQTLKQQETSAGEEFFVLKSFFSAISEKKQEFTFNLANALYLQEGFTVKEQYLHGNKEFFQSAIKLVDFQDAKACAEMISTWVERKTDGKIKDMFSGEEFGPLTRLVLVNAIYFKGDWKQKFRKEDTQLINFTKKNGSTVKIPMMKALLRTKYGYFSESSLNYQVLELSYKGDEFSLIIILPAEGMDIEEVEKLITAQQILKWLSEMQEEEVEISLPRFKVEQKVDFKDVLYSLNITEIFSGGCDLSGITDSSEVYVSQVTQKVFFEINEDGSEAATSTGIHIPVIMSLAQSQFIANHPFLFIMKHNPTESILFMGRVTNPDTQEIKGRDLDSL"}, "B8": {"name": "Rab-like protein 2A (Homo sapiens), Q9UBK7 (parent)", "chain": "MAEDKTKPSELDQGKYDADDNVKIICLGDSAVGKSKLMERFLMDGFQPQQLSTYALTLYKHTATVDGKTILVDFWDTAGQERFQSMHASYYHKAHACIMVFDIQRKVTYRNLSTWYTELREFRPEIPCIVVANKIDDINVTQKSFNFAKKFSLPLYFVSAADGTNVVKLFNDAIRLAVSYKQNSQDFMDEIFQELENFSLEQEEEDVPDQEQSSSIETPSEEVASPHS", "partner": "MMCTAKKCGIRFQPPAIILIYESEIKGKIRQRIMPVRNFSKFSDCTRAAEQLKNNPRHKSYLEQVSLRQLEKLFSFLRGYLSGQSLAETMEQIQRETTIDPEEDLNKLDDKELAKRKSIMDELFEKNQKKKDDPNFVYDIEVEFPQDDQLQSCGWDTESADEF"}}}
{"variants_of": "B1", "conditions": "with syt17_human SYT17, Q9BSW7"}
{"variant": "R23H", "effect of a mutation on the interaction": "with no effect"}
{"variants_of": "B2", "conditions": "with tri23_human TRIM23, P36406"}
{"variant": "E241G", "effect of a mutation on the interaction": "with no effect"}
{"variants_of": "B2", "conditions": "with ews_human EWSR1, Q01844"}
{"variant": "E241G", "effect of a mutation on the interaction": "with no effect"}
{"variants_of": "B3", "conditions": "with lce1b_human LCE1B"}
{"variant": "R74Q", "effect of a mutation on the interaction": "with no effect"}
{"variant": "A115T", "effect of a mutation on the interaction": "with no effect"}
{"variants_of": "B4", "conditions": "with rab7l_human RAB29, O14966"}
{"variant": "S177L", "effect of a mutation on the interaction": "with no effect"}
{"variants_of": "B5", "conditions": "with hook2_human HOOK2, Q96ED9"}
{"variant": "R33Q", "effect of a mutation on the interaction": "with no effect"}
{"variants_of": "B6", "conditions": "with RAB3IL1, Q8TBN0"}
{"variant": "A89V", "effect of a mutation on the interaction": "with no effect"}
{"variants_of": "B7", "conditions": "with ubql1_human UBQLN1, Q9UMX0"}
{"variant": "E148G", "effect of a mutation on the interaction": "with no effect"}
{"variants_of": "B7", "conditions": "with bag6_human BAG6, P46379"}
{"variant": "E148G", "effect of a mutation on the interaction": "with no effect"}
{"variants_of": "B8", "conditions": "with cep19_human CEP19, Q96LK0"}
{"variant": "L119F", "effect of a mutation on the interaction": "with no effect"}
